In one data set the target is T1, ParT (Streptomyces coelicolor A3(2), plasmid …, UniProt Q8VWE5 1-325).
T1 sequence: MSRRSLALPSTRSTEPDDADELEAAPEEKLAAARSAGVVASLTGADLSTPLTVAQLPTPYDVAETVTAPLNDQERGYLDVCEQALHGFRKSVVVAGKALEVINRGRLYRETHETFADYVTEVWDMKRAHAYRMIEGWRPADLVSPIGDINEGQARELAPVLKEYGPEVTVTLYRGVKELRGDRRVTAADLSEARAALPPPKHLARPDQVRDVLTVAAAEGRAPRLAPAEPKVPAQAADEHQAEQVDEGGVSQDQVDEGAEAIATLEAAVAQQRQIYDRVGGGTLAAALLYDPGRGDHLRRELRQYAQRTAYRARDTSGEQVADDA
Briefly: BLI. In general terms: BLI is a label-free optical method that tracks binding on a fibre tip over time.

The data set “mass photometry” deals with the molecule itself. Nature of the data set: mass photometry.

The source of these data is doi:10.1101/2024.05.08.592561 (bioRxiv, 2024).

B1: 40-bp parS duplex (dsDNA)
DNA 1: GGCCGACCTCGTGTCTCCAATTGGAGACATCAACGAGGGC
DNA 2: GCCCTCGTTGATGTCTCCAATTGGAGACACGAGGTCGGCC
On to B1, for which, in the data set with ParT, the Kd (usually the concentration at which binding is half-saturated) was 680 ± 200 nM.

B2: 40-bp scrambled parS duplex (dsDNA)
DNA 1: ATCGGGCACCTTAGGGCAATCGTAAGTTCGGCGCACGACC
DNA 2: GGTCGTGCGCCGAACTTACGATTGCCCTAAGGTGCCCGAT
Turning to B2, in the data set with ParT, the binding result is recorded as “no binding”.

B3: ParT-His6 (wild type) (natural protein)
chain: T1 sequence
In the case of B3, the stoichiometry N – broadly, the number of molecules, sites or subunits per partner or assembly – in the data set “mass photometry” was determined as 2.
